Laboratory results from patent US20080292662A1.

Biological target: Rhodanese (Sigma), denatured in 8 M urea (UniProt P00586)
Experiment: cell-based or functional assay

UniProt P00586, sequence (P00586 2-297 limits assumed): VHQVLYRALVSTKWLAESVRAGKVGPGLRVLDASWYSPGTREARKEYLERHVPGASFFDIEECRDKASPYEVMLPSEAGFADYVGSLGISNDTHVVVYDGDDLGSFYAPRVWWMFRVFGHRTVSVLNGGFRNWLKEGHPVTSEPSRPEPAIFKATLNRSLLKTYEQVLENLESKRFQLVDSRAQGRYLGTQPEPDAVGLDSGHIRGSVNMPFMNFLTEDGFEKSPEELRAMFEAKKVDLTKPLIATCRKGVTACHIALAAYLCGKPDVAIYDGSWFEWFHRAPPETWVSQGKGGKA

Work on “Histidine-tagged ClpL of Streptococcus pneumoniae (from pKHY004, expressed in E. coli)” yielded a Rhodanese activity (%) after refolding with ClpL 90 Nm of 9%.
